Patent publication US20250270323A1 (NEXTPOINT THERAPEUTICS, published 2025)

T1: biotinylated human HHLA2-Fc (human, UniProt Q9UM44 23-344, limits assumed, biotinylated (sites not given))
T1 construct: It may be the same protein as m8 with biotin added; not shown: Fc part
T1 sequence (looked up): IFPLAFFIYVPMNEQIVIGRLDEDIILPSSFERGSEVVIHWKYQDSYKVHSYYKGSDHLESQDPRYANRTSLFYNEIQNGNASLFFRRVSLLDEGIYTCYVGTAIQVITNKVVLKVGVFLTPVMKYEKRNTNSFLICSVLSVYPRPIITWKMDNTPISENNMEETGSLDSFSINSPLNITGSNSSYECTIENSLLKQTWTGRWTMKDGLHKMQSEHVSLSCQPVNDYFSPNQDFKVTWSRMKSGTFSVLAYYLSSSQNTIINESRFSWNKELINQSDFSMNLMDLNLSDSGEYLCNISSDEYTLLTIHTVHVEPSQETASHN

T2: recombinant HHLA2-Fc (UniProt Q9UM44 23-344, limits assumed)
T2 construct: Antigen in solution in the Octet assay; also called HHLA2-Fc antigen; not shown: Fc part
T2 sequence (looked up): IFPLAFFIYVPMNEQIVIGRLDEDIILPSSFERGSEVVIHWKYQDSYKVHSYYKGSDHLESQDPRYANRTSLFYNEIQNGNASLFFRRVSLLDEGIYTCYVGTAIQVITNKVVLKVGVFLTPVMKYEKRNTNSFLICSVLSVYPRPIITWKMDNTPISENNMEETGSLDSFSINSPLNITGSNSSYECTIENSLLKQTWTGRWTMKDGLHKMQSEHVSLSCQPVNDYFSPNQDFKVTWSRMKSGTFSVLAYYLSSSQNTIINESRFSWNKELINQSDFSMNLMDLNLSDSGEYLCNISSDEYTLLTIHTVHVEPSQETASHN

T3: recombinant HHLA2-His (UniProt Q9UM44 23-344, limits assumed)
T3 construct: Analyte in the Biacore assay; also called HHLA2-His analyte; not shown: His tag
T3 sequence (looked up): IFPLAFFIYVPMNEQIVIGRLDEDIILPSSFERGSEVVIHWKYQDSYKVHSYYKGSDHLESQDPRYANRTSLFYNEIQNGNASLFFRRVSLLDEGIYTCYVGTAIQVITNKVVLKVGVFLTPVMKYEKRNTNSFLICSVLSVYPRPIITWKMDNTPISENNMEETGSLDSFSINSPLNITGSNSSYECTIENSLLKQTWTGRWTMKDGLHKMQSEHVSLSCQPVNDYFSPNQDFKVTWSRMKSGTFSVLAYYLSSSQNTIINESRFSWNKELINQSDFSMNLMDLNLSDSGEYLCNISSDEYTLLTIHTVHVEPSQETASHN


Columns and labels:
[1] = molecular target: human HHLA2 over-expressed on 300.19 mouse pre-B leukemic cells (human) (UniProt Q9UM44); assay: flow cytometry; 10 ug/mL control IgG with 4 ug/mL biotinylated human TMIGD2-Fc, added to 300.19 HHLA2 cells
[2] = molecular target: human HHLA2 over-expressed on 300.19 mouse pre-B leukemic cells (human) (UniProt Q9UM44); assay: flow cytometry; 15 ug/ml antibody on 300.19-human HHLA2 cells, PE-conjugated anti-human secondary antibody
[3] = molecular target: T1, biotinylated human HHLA2-Fc; assay: flow cytometry blocking assay; 10 ug/mL control IgG with 4 ug/mL biotinylated human HHLA2-Fc, added to 300.19 KIR3DL3 cells
[4] = molecular target: human HHLA2 over-expressed on 300.19 mouse pre-B leukemic cells (human) (UniProt Q9UM44); assay: flow cytometry; TMIGD2-Fc binding to 300.19 HHLA2 cells with 10 ug/mL control IgG, against antigen only
[5] = molecular target: T1, biotinylated human HHLA2-Fc; assay: flow cytometry blocking assay; HHLA2-Fc binding to 300.19 KIR3DL3 cells with 10 ug/mL control IgG, against antigen only
[6] = molecular target: human HHLA2 over-expressed on 300.19 mouse pre-B leukemic cells (human) (UniProt Q9UM44); assay: flow cytometry; 10 ug/mL IgG with 4 ug/mL biotinylated human TMIGD2-Fc, added to 300.19 HHLA2 cells; streptavidin-Alexa Fluor 633; binding is enhanced
recombinant HHLA2-Fc = molecular target: T2, recombinant HHLA2-Fc; assay: BLI (Octet, ForteBio); IgG captured on AHC sensor, 100 nM HHLA2-Fc in solution; avid
From the text: The avid affinity of the anti-HHLA2 antibodies for recombinant HHLA2-Fc was investigated. The Octet system from ForteBio was used to measure avid affinity of the anti-HHLA2 antibodies for recombinant HHLA2-Fc.

[7] = molecular target: T1, biotinylated human HHLA2-Fc; assay: flow cytometry blocking assay; HHLA2-Fc binding to 300.19 KIR3DL3 cells with 10 ug/mL IgG, against antigen only
Procedure: The ability of the anti-HHLA2 antibodies to block binding of HHLA2 to KIR3DL3 and enhance binding of HHLA2 to TMIGD2 was investigated. […] Alexa Fluor 633 conjugated streptavidin was added as a secondary detection reagent.

[8] = molecular target: human HHLA2 over-expressed on 300.19 mouse pre-B leukemic cells (human) (UniProt Q9UM44); assay: flow cytometry; TMIGD2-Fc binding to 300.19 HHLA2 cells with 10 ug/mL IgG, against antigen only; binding is enhanced
recombinant HHLA2-His = molecular target: T3, recombinant HHLA2-His; assay: SPR (Biacore, Cytiva); antibody captured on CM5 chip, HHLA2-His as analyte; monovalent
Procedure: Monovalent affinity was determined by capturing each antibody on an CM5 chip, followed by various concentrations of the HHLA2-His analyte.

[9] = molecular target: human HHLA2 over-expressed on 300.19 mouse pre-B leukemic cells (human) (UniProt Q9UM44); assay: flow cytometry on 300.19 cells over-expressing human HHLA2, antibody titration, gMFI (aHu-APC)
Target sequence in this assay (Q9UM44 23-414): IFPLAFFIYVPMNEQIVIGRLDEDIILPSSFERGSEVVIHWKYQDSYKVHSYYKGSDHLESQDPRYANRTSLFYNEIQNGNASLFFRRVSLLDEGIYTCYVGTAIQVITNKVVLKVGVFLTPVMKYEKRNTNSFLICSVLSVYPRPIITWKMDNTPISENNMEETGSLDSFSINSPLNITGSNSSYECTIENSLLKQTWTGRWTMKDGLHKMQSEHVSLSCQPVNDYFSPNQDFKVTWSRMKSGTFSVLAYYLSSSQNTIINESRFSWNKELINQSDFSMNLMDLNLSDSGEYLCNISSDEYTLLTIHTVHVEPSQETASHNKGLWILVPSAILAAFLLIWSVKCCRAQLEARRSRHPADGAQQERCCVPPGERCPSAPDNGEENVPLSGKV

[10] = molecular target: T1, biotinylated human HHLA2-Fc; assay: flow cytometry blocking assay, antibody titration: binding of human HHLA2-Fc to 300.19 cells over-expressing human KIR3DL3 (blocked partner), gMFI (anti-SA-APC)
[11] = molecular target: human HHLA2 over-expressed on 300.19 mouse pre-B leukemic cells (human) (UniProt Q9UM44); assay: flow cytometry, antibody titration: binding of human TMIGD2-Fc (enhanced ligand) to 300.19 cells over-expressing human HHLA2, % TMIGD2-Fc binding normalized to isotype

300.19-human HHLA2 cells FOB (fold over background) (fold over background) [2] | 300.19-human HHLA2 cells MFI [2] [MFI] | Kd (recombinant HHLA2-His) [nM] | koff (recombinant HHLA2-His) [s⁻¹] | kon (recombinant HHLA2-His) [M⁻¹ s⁻¹] | EC50 (read off the curve) [9] [µg/mL] | IC50 (read off the curve) [10] [µg/mL] | also measured | Molecule
22 | 3290 | – | – | – | – | – | Human TMIGD2-Fc Binding MFI for 300.19 HHLA2 cells [1]: 943 MFI; Human HHLA2-Fc Binding MFI for 300.19 KIR3DL3 cells [3]: 6990 MFI; Antigen Binding MFI Ratio (IgG blocked/antigen only) [4]: 1.6; Antigen Binding MFI Ratio (IgG blocked/antigen only) [5]: 0.9 | Isotype control (antibody)
394 | 46900 | – | – | – | – | – | Human TMIGD2-Fc Binding MFI for 300.19 HHLA2 cells [6]: 2730 MFI; Kd (recombinant HHLA2-Fc): 1.42 nM; koff (recombinant HHLA2-Fc): 0.000469 s⁻¹; kon (recombinant HHLA2-Fc): 330000 M⁻¹ s⁻¹; Antigen Binding MFI Ratio (IgG blocked/antigen only) [7]: 0 ratio; Antigen Binding MFI Ratio (IgG blocked/antigen only) [8]: 4.5 | Ab-60638 (antibody, human IgG4 S228P, kappa, V domains shown, tested as IgG) VH: QVQLVQSGAEVKKPGASVKVSCKASGYTFTSYAMHWVRQAPGQRLEWMGWINAGTGNTKYSQKFQGRVTITRDTSASTAYMELSSLRSEDTAVYYCARDLPHRGAFDPWGQGTLVTVSS VL: EIVLTQSPGTLSLSPGERATLSCRASQSVSSDYLAWYQQKPGQAPRLLIYGASSRATGIPDRFSGSGSGTDFTLTISRLEPEDFAVYYCQLYGSAPRTFGGGTKVEIKR
– | – | 0.765 | 9.28e-05 | 123000 | 0.1 | ~1 | – | Ab-65890 (antibody, human IgG1, V domains shown, tested as IgG) VH: QVQLVQSGAEVKKPGASVKVSCKASGYTFNSYRMHWVRQAPGQRLEWMGSIPAGTGNTVYSQKFQGRVTITRDTSASTAYMELSSLRSEDTAVYYCARDRGGYYYDSWDDWGQGTLVTVSS VL: DIQMTQSPSSLSASVGDRVTITCRASQSISSYLNWYQQKPGKAPKLLIYGASSLQSGVPSRFSGSGSGTDFTLTISSLQPEDFATYYCQQVPFEPPTFGGGTKVEIK
– | – | 11.3 | 0.00688 | 609000 | 0.1 | ~1 | – | Ab-65886 (antibody, human IgG1, kappa, V domains shown, tested as IgG) VH: QVQLVQSGAEVKKPGASVKVSCKASGYTFEKYAMHWVRQAPGQRLEWMGFIPAGTGNTKYSQKFQGRVTITRDTSASTAYMELSSLRSEDTAVYYCARDRGGYYYDSWDDWGQGTLVTVSS VL: DIQMTQSPSSLSASVGDRVTITCRASQSISSYLNWYQQKPGKAPKLLIYGASSLQSGVPSRFSGSGSGTDFTLTISSLQPEDFATYYCQQVAFTPPTFGGGTKVEIKR
– | – | 16.5 | 0.0148 | 900000 | 0.1 | ~1 | – | Ab-65887 (antibody, human IgG1, kappa, V domains shown, tested as IgG) VH: QVQLVQSGAEVKKPGASVKVSCKASGYTFEQYAMHWVRQAPGQRLEWMGFIPAGTGNTKYSQKFQGRVTITRDTSASTAYMELSSLRSEDTAVYYCARDRGGYWYDSWDDWGQGTLVTVSS VL: DIQMTQSPSSLSASVGDRVTITCRASQSISSYLNWYQQKPGKAPKLLIYGASSLQSGVPSRFSGSGSGTDFTLTISSLQPEDFATYYCQQVVFTPPTFGGGTKVEIKR
– | – | 0.894 | 0.000114 | 128000 | 0.1 | ~1 | EC50 (read off the curve) [11]: 0.1 µg/mL | Ab-65889 (antibody, human IgG1, kappa, V domains shown, tested as IgG) VH: QVQLVQSGAEVKKPGASVKVSCKASGYTFASYKMHWVRQAPGQRLEWMGDIPAGTGNTHYSQKFQGRVTITRDTSASTAYMELSSLRSEDTAVYYCARDRGGYYYDSWDDWGQGTLVTVSS VL: DIQMTQSPSSLSASVGDRVTITCRASQSISSYLNWYQQKPGKAPKLLIYGASSLQSGVPSRFSGSGSGTDFTLTISSLQPEDFATYYCQQVPFEPPTFGGGTKVEIKR
– | – | 5.82 | 0.00205 | 325000 | 0.1 | ~1 | – | Ab-65885 (antibody, human IgG1, kappa, V domains shown, tested as IgG) VH: QVQLVQSGAEVKKPGASVKVSCKASGYTFDSYKMHWVRQAPGQRLEWMGYIPAGTGNTKYSQKFQGRVTITRDTSASTAYMELSSLRSEDTAVYYCARDRGGYYYDSWDDWGQGTLVTVSS VL: DIQMTQSPSSLSASVGDRVTITCRASQSISSYLNWYQQKPGKAPKLLIYGASSLQSGVPSRFSGSGSGTDFTLTISSLQPEDFATYYCQQVAFTPPTFGGGTKVEIKR
820 | 115000 | – | – | – | – | – | Human TMIGD2-Fc Binding MFI for 300.19 HHLA2 cells [6]: 1860 MFI; Kd (recombinant HHLA2-Fc): 0.971 nM; koff (recombinant HHLA2-Fc): 0.000189 s⁻¹; kon (recombinant HHLA2-Fc): 194000 M⁻¹ s⁻¹; Antigen Binding MFI Ratio (IgG blocked/antigen only) [7]: 0 ratio; Antigen Binding MFI Ratio (IgG blocked/antigen only) [8]: 3.1 | Ab-60665 (antibody, human IgG4 S228P, kappa, V domains shown, tested as IgG) VH: QVQLVQSGAEVKKPGSSVKVSCKASGGTSSNYAISWVRQAPGQGLEWMGGIIPIFGTANYAQKFQGRVTITADESTSTAYMELSSLRSEDTAVYYCARSGTIWHDIWGQGTMVTVSS VL: EIVLTQSPATLSLSPGERATLSCRASQSVSSYLAWYQQKPGQAPRLLIYDSSNRATGIPARFSGSGSGTDFTLTISSLEPEDFAVYYCQQVVHWPPTFGGGTKVEIKR
